According to the nanobody polyreactivity screen of Harvey et al. (2022):

Assay: yeast display, Sf9 membrane polyspecificity reagent, FACS + sequencing; frameworks hold sequencing errors
Outline: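 Genes from sorted yeast were amplified by colony PCR, read by MiSeq 2 × 250 sequencing and filtered on CDR length. These cells carried a synthetic nanobody library in Saccharomyces cerevisiae BJ5465 and were sorted by FACS into low and high (top ~1%) gates on anti-HA and streptavidin fluorescence. Polyreactivity is labelled according to the gate of origin.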

Sequence	polyreactivity (PSR sort gate)
QVQLVESGGGLVQAGGSLRLSCAASGSTFSVYAMGLYRQAPGKERELVPAITWSGGSTYYADSVKGRFTISRDNAKNTVYLQMNSLKPEDTAVYYCNAERWLATPTVPWYLYNYWGQGTQVTVSS	low polyreactivity
QVQLVESGGGLVQAGGSLRLSCAASGRTLSYYAMGWYRQAPGKEREFVAAITGSGGSTYYADSVKGRFTISRDNAKYTVYLQMNSLKPEDTAVYYCNAKGLGVFTVEYYYWGQGTQVTVSS	low polyreactivity
QDQLVESGGGLVQAGGSLRLSCAASGRTFIRNAMGWYRQAPGKERELVAAITNSGGSTYYADSVKGRFTISRDNAKNTVYLQMNSLNPEDTAVYDCNRVYRSHRPYTYPFSYDYWGQGTQVTVSS	high polyreactivity
QVQLVESGGGLVQAGGSLRLRCAASGGIFGYYAMGLYRQAPGKERDFVAAITLSGGRTYYADSVKGRFTISRDNAKNTVYLQMNSLKPEDTAVYYCAAKGTRRGKERNYWGQGTQVTLSS	high polyreactivity
QVQLVESGGGLVQAGGSLRISCAASGRTFGRYTMGWYRQAPGKVRELVASISNTARTNYADSVKGRFTISRDNAKNTVYLQMNSLKPEDTAVYYCASGFVRYRGTRDYWGQGTQVTVSS	low polyreactivity
QFQLVDSGGGLVQAGGSLRLSCAASGSTFGYYAMGWYRQATGKERELVAAISWRGGSTSYADSVKGRFTISRDNAKNTVYLQMNSLIPEDTAVYLCAAGGDINKYGRQYRYDYWGQGTQVTVSS	high polyreactivity
QVQLVESVGVLVQAGGSLRLSCAASVSIFDYNAMGWYRQAPGKERELVADITISDDSTYYADSVKGRFTISRDNAKNTVYLQMNSLKPEDTAVYYCAADIKYYWYYYYWAYAYDYWGQGTQVTVSS	high polyreactivity
QVQLVESGGGLVQAGGSLRLSCAASGSTFVKYTMGWYRPAPGKERELVAAIRRRGGSTYYADSVKGRFTISRDNAKNTVYLQMNSLKPEDTAVYYCATAGQGAFWGQGTQVTVSS	high polyreactivity
QVQLVESVGGLVQAGGSLRLSCAASGRIFGRYAMGWYRQAPGKESELVAAISTNGGRTYYADSVKGRFTISRDNAKNTVYLQRKSLKPEDNADYYCARAYRGPGYVIRYDYWGQGTQVTVSS	high polyreactivity
QVQLVESGGGLVQAGGSLRLSCAASGSIFLYNAMGWYRQAPGKERELVADITSAGRTYYADSVKGRFTISRDNAKNTVYLQMNSLKPEDTAVYYCNKDYHYHFSWYGYWGQGTQVTVSS	low polyreactivity
QVQLVESAAGLVQAGGSLRLTCAASGLTFTTYAKGWYTQSPRKDRELVAAISRRGSRTYYADSVKGRFTISRDNAKNTVYLQMQSLKPDDTAVYYCNALTGSFKTDSFDYWGQGTQVTVSS	high polyreactivity
QVQLVESGGGLVQAGGSLRLSCAASGFIFGTYAMGWYRQAPGKEREFVAAINWGGGRTYYADSVKGRFTISRDNAKNTVYLQMNSLKPEDTAVYYCNKRLIYYRGTYYSRRFDYWGQGTQVTVSS	high polyreactivity
QVQLVESGGGLVQAGGSLRLSCAASGSIFGYYSMGWYRQAPGKERELVAAISRSGTRTYYADSVKGRFTISRDNAKNTVYVQMNSLKPEDTAVYYCNAVQQYYGTWGYGYWGQGTQVSVSS	high polyreactivity
QVQLVESGGGFVQAGGSLRLSCAASGRIFRIYAMGWYRQAPGKERELVAAITYRGGSTNYADSVKGRFTISRDNAKNTVYVQINSLKPEDTAVYDCAARSVYYGYTGYSYWGPGTQVTVSS	high polyreactivity
QDQLVESGGGLVQAGGSLRLSCAASGIIFRNYAMGWYRQAPGKERELVATIRYRGGRTYADSVKGRFTISRDNAKNTVYLQMNSLKPEDTAVYYCNARRLSDYGDYDYWGQGTQVTVSS	high polyreactivity
QVQLVESGGGLVQAGGSLRFSCAASGRIFSIYAMGWYRQAPGKERELVAAISKRGGSTSYADSVKGRFTISRDNAKNTVYLQMNSLKPEDTAVYYCNARGWIPARGWDDYYWGQGTQVTVSS	high polyreactivity
QVQLVESGGGLFQAGGSLRLSCAASGSTFVWYAMGWYRQAPGKEREFVAANTNSGGSTYYADSVKGRFTISRDTAKNTVYLQMNILKPEDTAVYYCAAQSYYFSYHYDYWGQGTQVTVSS	low polyreactivity
QVQLVESGGGLVQAGGSLRLSCADSGSTFSYYAMGWYRQAPGKEGELVAAISARGGSTNYADSVKGRFTISRDNAKNTVYLQMNSLKPEDTAVYYCAAYDPLVDYFRYAYSDDYWGQGTQVTVSS	high polyreactivity
QVQLEESGGGLVQAGGSLRLSCAASGRTFDIYAMGWYRQATGKERELVAAISSGGSTYYADSVKGRFTISRDNAKNTVFLQMNSLKPEDTAVYYCAVRWYDQVSRRGIGYYWGQGTQVTVSS	low polyreactivity
QVQLVESGGGLVQAGGSLRLSCAASGITFKTYDMGRYRQAPGKERELVATINRGSRTNYADSVKGRFTISRDNAKNTVYLQMNSLKPEDTAVYYCSAHDTTFIPSPDGDYLGQGTQVTVSS	low polyreactivity
QVQLVESGGGLVQAGGSLRLSCAASGNTFPGYAMGWYRQAPGKEREFVATITSNDGTTYYADSVKGRFTISRDNAKNTVYLQLNSLKPEDTAVYYCAKRLSDSWPPNWGYNYWGQGTQVTVSS	low polyreactivity
QVQLVESGGGLVQAGGSLRLSCAASGRTFVYNAMGWYRQAPGKERELVAAIDWSGGSTYYADSVKGRFTISRDNAKNTVYLQMNSLKPEDTAVYYCAADYYYPSQMDYWGQGTQVTVSS	low polyreactivity

Sequence	polyreactivity (PSR sort gate)
QDQLVESGGGLVQAGGSLRLSCAASGSTFQYYTMGWYRQAPGKERELVAAISGDGGNTYYADSVKGRFTISRDNAKNTVYLQMNRLKPEDTAVYYCNADGLILYDYWGQGTQVTVSW	low polyreactivity
QVQLVESGGGLVQAGGILRLSCAASGFIFGYYGMGWYRQAPGKERELVAAISRSGGGTFYAVSVKGRFTISRDNAKNTVYLQMNSLKPEDTAVYYCNAKYYRKSGLSGAYPYYYWGQGTQVTVSS	high polyreactivity
QVQLVESGGGLVQAGGSLRLSCAASGFTCSSNAMGWSRLAAGKERELVAAISSSGARTYYADSVKGRFTISRDNAKTTVYLQMNSLKPEDTAVYYCNARGLAGRKGYDYGGQGTQVTVSS	high polyreactivity
QVQLVESGGGLVQAGGSLRLSCAASGSIFPRNAMGWYRQAPGKERELVARINSGGTTKYADSVKGRFTISRDNAKYTVFLQMNSLKPEDTAGYYCNADTYILDPLRKSYGYDYWGQGTQVTVSS	low polyreactivity
QVQLVESGGGLVQAGGSLRLSCAASGRIFGTYTMGWYRQAPGKERELVAAISRNGGSTYYADSVKGRITISRDNAKNTVYLQMNSLKPEDTAVYYCNAERRDDRGFDYWGQGTQVTVSS	low polyreactivity
QVQLVESGGGLVQAGGSLRLSCAASGFTFPGNAMGWYRHPPGKERELVAAISSTDRTTNADSVKGRFTISRDNAKNTGYLQMNSLKPEDTAVYYCYTATRRRPRGYWGQGTQVTVSS	high polyreactivity
QVQLVESGGGLVQAGGSLLLICSASGSTFVRHAMGWYRHAPGKESELDAAISTRGGSTSYADSVKGRFTISRDNSKNSVYLQMKSLKQEDTAVYYCAKVLAYSQGIRHGYWGQGTQVTVSS	low polyreactivity
QVHLVESGGGLVQAGVSLRLSCAASGSTFDYYAMGWYIQAPGTERELVAGITGGGSTYYADSVKGRFTISRDNAKNTVYLQMNSLKPEDTAVYYCNAGPAQRYDYWGQGTQVTVSS	low polyreactivity
QVQLVESGGGLVQAGGSLRLSCAASGFTLENYAMGWYRQAPGKARELVAAINCRGSRTYYADSVKGRFTISRDNAMNTVYLQMNSLKPEDTAVYYCARDKRTNSGFYYWGQGTQVTVSS	high polyreactivity
QVQLVESGGGLVQAGGSLRLSSAASGRIFSSYAMGWYRQAPGKERELVAAITSGGSTYYADSVKGRFTISRDNAKNTVYLQMNSLKPEDTAVYYCAAVYVQPPATAQHYYYWGQGTQVTVSS	high polyreactivity
QVQLVESGGGLVQSGGSLRLSCAASGSTSGTNAMGWYRQAPGKERELVAGISYRGGSTYYADSVKGRFTISRDNAKNTVYLHMNSLKPEDTEVYYCAASRNISYWGQGTQVTVSS	high polyreactivity
QVQLVESGGGLVQAGGSLRLSCAASGRTFVRNAMGWYRQAPGKERELVAGITRSGGSTYYADSVKGRFTISRDNAKNTVYLQMNSLKPEDTAVYYCAKRYDVYVGTVRPYDYWGQGTQVTVSS	low polyreactivity
QVQLVESGGGLVQAGGSLSLSCAASGLTFVYYVMGWYRQAPGKERELVAAISSGGGTYYADSVKGRFTISRDNAKNTVYLQMNSLKPEDTAVYYCAADLLGWFDFDYWGQGTQVTVSS	high polyreactivity
QVQLVESGGGLVQAGGSLRLSCAASGFTFKHYTMGWYRQAPGKERELVAAISYSGGSTYYADSVKGRFTISRDNAKNTVYLQMNSLKPEDTAVYYCAADAVKASVSYIVPYAAYDYWGQGTQVTVSS	low polyreactivity
QVQLVESGGGLVQAGGSLRLSCAASGSILDIYAMGWSRQAPGKERELVAGISTSGGSTYYADSVKGRFTISRDNAKNTVYLQMNSLKPEDTAVYYCAKDYGYQGHTRTLYWAYLEYDYWGQGTQVTVSS	low polyreactivity
QVQLVESGGGLVQAGGSLRLSCAASGFIFNVNAMGWYRQAPGKERELVAAITGGGGSTYYADSVKGRFTISRDNAKNTVYLQMNSLKPEDTAVYYCARGRTIRSSRTGGSWGQGTQVTVSS	high polyreactivity
QVQLVESGGPLVQAGGSLRLSFAACGFTLWSYSLGWYRQAPGKESELVAAINSRGGRTSYADSVKGRFTISRDNAKNTVYLQINRLKPEDTAVYYCATDPISRARLYGQRDYWGQGTQVTVSS	high polyreactivity
QVQLVESGGGLVQAGGSLRLSCAASGIIFNTYVMGWYRQAPGKERELVAAISRRGGSTYYADSVKGRFTISRDNAKNTVYLQMNSLKPEDTAVYYCAADVLYQQAGSYYWGQGTQVTVSS	high polyreactivity
QVQLVESRGGLVQAGGSLRISCPDSGFTFTKNAMGWYRQAPGKERELVAAISRGRGRTYYADSVKGRFTISRDNAKNTVYFQMNSLIPEDTAVYYCNVDKVGPGYDYWGQGTQVTVSS	high polyreactivity
QVQLVESGGGLVQGGGSLRLSCAASGSTFSRYAMGWYRPAPGKERELVAAITGTGGRTYYADSVKGRFTISRANAKNTVYLQRNSLKPEDTAVYYCAAQRWTVKYNYWGQGTQVTVSS	high polyreactivity
QVQLVESAGGLVQAGGSLRLSCAASGRTIRWYTMGWYRQAPGKERELVAGISSSGGSTYYADSVKGRFTISRDTAKNTVYLQMNSLKPEDTAVYYCNVVTWYYVFRPWEYDYWGQGTQVTVSS	low polyreactivity
